According to patent US20160222085A1 (CHILDREN S HOSPITAL OF PHILADELPHIA, published 2016):
Values belong to the molecule of their own block, whether it stands above or below them.

Key:
[1] = target: FV-810 (FV-DT), Factor V with amino acids 811-1491 deleted from the B-domain (human) (UniProt P12259); assay: fluorescence anisotropy, displacement; FXa S195A titrated into 30 nM OG488-BR, 20 nM FV-810, 50 uM PCPS, 25 C; displaced ligand: OG488-BR
[2] = target: FV-810 (FV-DT), Factor V with amino acids 811-1491 deleted from the B-domain (human) (UniProt P12259); assay: fluorescence anisotropy displacement of OG488-BR; FXaS195A titrated into 30 nM OG488-BR, 20 nM FV-810, 50 uM PCPS
[3] = target: FV-810 (FV-DT), Factor V with amino acids 811-1491 deleted from the B-domain (human) (UniProt P12259); assay: global fit of prethrombin-2 activation rates (1-50 nM FXa, 0-1000 nM BR, 5 nM FV-810, 50 uM PCPS) to a tight, competitive binding model
[4] = target: FV-810 (FV-DT), Factor V with amino acids 811-1491 deleted from the B-domain (human) (UniProt P12259); assay: fluorescence anisotropy, displacement; bovine BR titrated into 30 nM OG488-BR, 20 nM FV-810, 50 uM PCPS, 25 C; competitor: OG488-BR
[5] = target: FV-810 (FV-DT), Factor V with amino acids 811-1491 deleted from the B-domain (human) (UniProt P12259); assay: fluorescence anisotropy displacement of OG488-BR; 30 nM OG488-BR, 20 nM FV-810, 50 uM PCPS; stoichiometry of 1 assumed
Target sequence in this assay (P12259 other isoform, or with tags, fused parts or gaps, form in doubt): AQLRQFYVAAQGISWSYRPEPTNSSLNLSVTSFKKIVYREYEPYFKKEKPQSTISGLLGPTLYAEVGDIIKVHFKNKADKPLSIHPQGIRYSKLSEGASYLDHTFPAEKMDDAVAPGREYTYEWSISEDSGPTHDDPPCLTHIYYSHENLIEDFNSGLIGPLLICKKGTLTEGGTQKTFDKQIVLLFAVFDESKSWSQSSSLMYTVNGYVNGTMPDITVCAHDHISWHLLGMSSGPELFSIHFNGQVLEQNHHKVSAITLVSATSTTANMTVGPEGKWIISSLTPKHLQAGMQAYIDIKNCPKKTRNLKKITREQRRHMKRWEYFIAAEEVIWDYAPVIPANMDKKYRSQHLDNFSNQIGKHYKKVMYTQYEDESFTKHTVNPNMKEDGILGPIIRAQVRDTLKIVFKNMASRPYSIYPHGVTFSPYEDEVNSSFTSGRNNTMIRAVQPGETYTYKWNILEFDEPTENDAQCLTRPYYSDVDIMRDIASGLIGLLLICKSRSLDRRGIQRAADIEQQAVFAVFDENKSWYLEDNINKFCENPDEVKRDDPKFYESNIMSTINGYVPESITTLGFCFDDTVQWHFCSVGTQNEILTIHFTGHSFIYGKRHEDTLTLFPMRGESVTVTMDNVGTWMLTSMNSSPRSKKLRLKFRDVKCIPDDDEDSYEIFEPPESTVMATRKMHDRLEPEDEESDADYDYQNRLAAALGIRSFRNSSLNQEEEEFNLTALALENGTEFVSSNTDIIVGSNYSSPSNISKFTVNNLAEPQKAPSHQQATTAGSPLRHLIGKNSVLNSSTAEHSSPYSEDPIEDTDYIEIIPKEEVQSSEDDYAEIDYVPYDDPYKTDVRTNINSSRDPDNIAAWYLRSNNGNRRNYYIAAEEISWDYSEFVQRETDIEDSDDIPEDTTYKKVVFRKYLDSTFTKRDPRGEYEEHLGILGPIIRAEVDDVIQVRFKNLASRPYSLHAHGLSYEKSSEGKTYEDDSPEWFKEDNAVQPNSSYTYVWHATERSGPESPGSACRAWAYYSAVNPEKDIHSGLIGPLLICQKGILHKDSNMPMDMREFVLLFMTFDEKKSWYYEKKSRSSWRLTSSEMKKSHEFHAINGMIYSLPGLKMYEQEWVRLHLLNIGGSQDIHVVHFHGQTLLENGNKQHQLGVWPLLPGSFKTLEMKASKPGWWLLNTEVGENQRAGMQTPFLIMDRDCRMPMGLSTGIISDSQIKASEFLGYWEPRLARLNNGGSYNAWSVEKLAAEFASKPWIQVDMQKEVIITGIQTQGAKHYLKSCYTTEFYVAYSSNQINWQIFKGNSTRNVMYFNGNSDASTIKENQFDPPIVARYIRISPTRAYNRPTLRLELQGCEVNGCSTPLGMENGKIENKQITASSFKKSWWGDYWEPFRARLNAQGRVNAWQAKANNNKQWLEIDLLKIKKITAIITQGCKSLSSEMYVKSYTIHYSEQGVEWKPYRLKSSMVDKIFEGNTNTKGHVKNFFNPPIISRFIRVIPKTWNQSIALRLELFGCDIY

[6] = target: FV-810 (FV-DT), Factor V with amino acids 811-1491 deleted from the B-domain (human) (UniProt P12259); assay: fluorescence anisotropy displacement of OG488-BR
[7] = target: T1, Oregon Green 488 maleimide-modified BR (OG488-BR) (human, Oregon Green 488 maleimide on the added N-terminal Cys); assay: fluorescence anisotropy; thrombin-pretreated, hirudin-quenched FV-810 QQ titrated into 30 nM OG488-BR with 50 uM PCPS
T1 construct: also called fluorescently labeled FVBR
T1 peptide: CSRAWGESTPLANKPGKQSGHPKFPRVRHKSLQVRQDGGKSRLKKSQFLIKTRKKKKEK
Experimental: (§1) FV-810, FV-810^R709Q (▴), FV-810^R1545Q (♦), and FV-810^QQ (▪) were pretreated with buffer (FIG. 14A) or thrombin (FIG. 14B).
(§2) Steady-state fluorescence anisotropy was measured at 25° C. in a PTI Quanta-Master™ fluorescence spectrophotometer (Photon Technology International, Birmingham, N.J.) using excitation and emission wavelengths of 480 and 520 nm, respectively, with long-pass filters (KV500, CVI Melles Griot) in the emission beam.

[8] = target: T1, Oregon Green 488 maleimide-modified BR …; assay: fluorescence anisotropy; buffer-pretreated FV-810 QQ titrated into 30 nM OG488-BR with 50 uM PCPS
Experimental: as §1, §2

[9] = target: T1, Oregon Green 488 maleimide-modified BR …; assay: fluorescence anisotropy; buffer-pretreated FV-810 R709Q titrated into 30 nM OG488-BR with 50 uM PCPS
Experimental: as §1, §2

[10] = target: T1, Oregon Green 488 maleimide-modified BR …; assay: fluorescence anisotropy; buffer-pretreated FV-810 R1545Q titrated into 30 nM OG488-BR with 50 uM PCPS
Experimental: as §1, §2

B1: Bovine BR (Bos taurus Ser938-Lys996) (peptide, UniProt Q28107 966-1024, looked up)
peptide: SRTWGENIPFKNSHGKQSGHPTFLVTRRKPLQDRQDRRNSRLKEGLPLIRTRRKKKEEK
IC50 (read off the curve) [4]: 300 to 400 nM
Kd [5]: 28.3 nM
fold weaker binding than the human BR [6]: 10 fold

B2: FV-810^QQ (other, human, UniProt P12259 29-838, looked up)
chain: AQLRQFYVAAQGISWSYRPEPTNSSLNLSVTSFKKIVYREYEPYFKKEKPQSTISGLLGPTLYAEVGDIIKVHFKNKADKPLSIHPQGIRYSKLSEGASYLDHTFPAEKMDDAVAPGREYTYEWSISEDSGPTHDDPPCLTHIYYSHENLIEDFNSGLIGPLLICKKGTLTEGGTQKTFDKQIVLLFAVFDESKSWSQSSSLMYTVNGYVNGTMPDITVCAHDHISWHLLGMSSGPELFSIHFNGQVLEQNHHKVSAITLVSATSTTANMTVGPEGKWIISSLTPKHLQAGMQAYIDIKNCPKKTRNLKKITREQRRHMKRWEYFIAAEEVIWDYAPVIPANMDKKYRSQHLDNFSNQIGKHYKKVMYTQYEDESFTKHTVNPNMKEDGILGPIIRAQVRDTLKIVFKNMASRPYSIYPHGVTFSPYEDEVNSSFTSGRNNTMIRAVQPGETYTYKWNILEFDEPTENDAQCLTRPYYSDVDIMRDIASGLIGLLLICKSRSLDRRGIQRAADIEQQAVFAVFDENKSWYLEDNINKFCENPDEVKRDDPKFYESNIMSTINGYVPESITTLGFCFDDTVQWHFCSVGTQNEILTIHFTGHSFIYGKRHEDTLTLFPMRGESVTVTMDNVGTWMLTSMNSSPRSKKLRLKFRDVKCIPDDDEDSYEIFEPPESTVMATRKMHDRLEPEDEESDADYDYQNRLAAALGIQSFRNSSLNQEEEEFNLTALALENGTEFVSSNTDIIVGSNYSSPSNISKFTVNNLAEPQKAPSHQQATTAGSPLRHLIGKNSVLNSSTAEHSSPYSEDPIEDTDYIEIIPKEEVQSSEDDYAEIDYVPYDDPYKTDVRTNINSSRDPDNIAAWYLQSNNGNRRNYYIAAEEISWDYSEFVQRETDIEDSDDIPEDTTYKKVVFRKYLDSTFTKRDPRGEYEEHLGILGPIIRAEVDDVIQVRFKNLASRPYSLHAHGLSYEKSSEGKTYEDDSPEWFKEDNAVQPNSSYTYVWHATERSGPESPGSACRAWAYYSAVNPEKDIHSGLIGPLLICQKGILHKDSNMPMDMREFVLLFMTFDEKKSWYYEKKSRSSWRLTSSEMKKSHEFHAINGMIYSLPGLKMYEQEWVRLHLLNIGGSQDIHVVHFHGQTLLENGNKQHQLGVWPLLPGSFKTLEMKASKPGWWLLNTEVGENQRAGMQTPFLIMDRDCRMPMGLSTGIISDSQIKASEFLGYWEPRLARLNNGGSYNAWSVEKLAAEFASKPWIQVDMQKEVIITGIQTQGAKHYLKSCYTTEFYVAYSSNQINWQIFKGNSTRNVMYFNGNSDASTIKENQFDPPIVARYIRISPTRAYNRPTLRLELQGCEVNGCSTPLGMENGKIENKQITASSFKKSWWGDYWEPFRARLNAQGRVNAWQAKANNNKQWLEIDLLKIKKITAIITQGCKSLSSEMYVKSYTIHYSEQGVEWKPYRLKSSMVDKIFEGNTNTKGHVKNFFNPPIISRFIRVIPKTWNQSIALRLELFGCDIY
notes: range 1-810;range 1492-2196; Both thrombin sites (Arg709 and Arg1545) changed to Gln; The same molecule is used for the thrombin-pretreated sample, since both cleavage sites are removed; the assay field says where thrombin pretreatment was used
EC50 (read off the curve) [7]: 10 to 15 nM
EC50 (read off the curve) [8]: ~9 nM

B3: FV-810^R709Q (other, human, UniProt P12259 29-838, looked up)
chain: AQLRQFYVAAQGISWSYRPEPTNSSLNLSVTSFKKIVYREYEPYFKKEKPQSTISGLLGPTLYAEVGDIIKVHFKNKADKPLSIHPQGIRYSKLSEGASYLDHTFPAEKMDDAVAPGREYTYEWSISEDSGPTHDDPPCLTHIYYSHENLIEDFNSGLIGPLLICKKGTLTEGGTQKTFDKQIVLLFAVFDESKSWSQSSSLMYTVNGYVNGTMPDITVCAHDHISWHLLGMSSGPELFSIHFNGQVLEQNHHKVSAITLVSATSTTANMTVGPEGKWIISSLTPKHLQAGMQAYIDIKNCPKKTRNLKKITREQRRHMKRWEYFIAAEEVIWDYAPVIPANMDKKYRSQHLDNFSNQIGKHYKKVMYTQYEDESFTKHTVNPNMKEDGILGPIIRAQVRDTLKIVFKNMASRPYSIYPHGVTFSPYEDEVNSSFTSGRNNTMIRAVQPGETYTYKWNILEFDEPTENDAQCLTRPYYSDVDIMRDIASGLIGLLLICKSRSLDRRGIQRAADIEQQAVFAVFDENKSWYLEDNINKFCENPDEVKRDDPKFYESNIMSTINGYVPESITTLGFCFDDTVQWHFCSVGTQNEILTIHFTGHSFIYGKRHEDTLTLFPMRGESVTVTMDNVGTWMLTSMNSSPRSKKLRLKFRDVKCIPDDDEDSYEIFEPPESTVMATRKMHDRLEPEDEESDADYDYQNRLAAALGIQSFRNSSLNQEEEEFNLTALALENGTEFVSSNTDIIVGSNYSSPSNISKFTVNNLAEPQKAPSHQQATTAGSPLRHLIGKNSVLNSSTAEHSSPYSEDPIEDTDYIEIIPKEEVQSSEDDYAEIDYVPYDDPYKTDVRTNINSSRDPDNIAAWYLRSNNGNRRNYYIAAEEISWDYSEFVQRETDIEDSDDIPEDTTYKKVVFRKYLDSTFTKRDPRGEYEEHLGILGPIIRAEVDDVIQVRFKNLASRPYSLHAHGLSYEKSSEGKTYEDDSPEWFKEDNAVQPNSSYTYVWHATERSGPESPGSACRAWAYYSAVNPEKDIHSGLIGPLLICQKGILHKDSNMPMDMREFVLLFMTFDEKKSWYYEKKSRSSWRLTSSEMKKSHEFHAINGMIYSLPGLKMYEQEWVRLHLLNIGGSQDIHVVHFHGQTLLENGNKQHQLGVWPLLPGSFKTLEMKASKPGWWLLNTEVGENQRAGMQTPFLIMDRDCRMPMGLSTGIISDSQIKASEFLGYWEPRLARLNNGGSYNAWSVEKLAAEFASKPWIQVDMQKEVIITGIQTQGAKHYLKSCYTTEFYVAYSSNQINWQIFKGNSTRNVMYFNGNSDASTIKENQFDPPIVARYIRISPTRAYNRPTLRLELQGCEVNGCSTPLGMENGKIENKQITASSFKKSWWGDYWEPFRARLNAQGRVNAWQAKANNNKQWLEIDLLKIKKITAIITQGCKSLSSEMYVKSYTIHYSEQGVEWKPYRLKSSMVDKIFEGNTNTKGHVKNFFNPPIISRFIRVIPKTWNQSIALRLELFGCDIY
notes: range 1-810;range 1492-2196; mature numbering
EC50 (read off the curve) [9]: 15 to 20 nM

More lines, now with the values ahead:

IC50 (read off the curve) [1]: 40 nM
n (stoichiometry) (mol of FXa/mol of FV-810) [2]: 1.1
Molecule: catalytically inactive FXa^S195A (from UniProt P00742 41-179; P00742 235-488) (enzyme)

Kd [3]: 2 nM
Molecule: Factor Xa (FXa) (from UniProt P00742 41-179; P00742 235-488) (enzyme)

EC50 (read off the curve) [10]: 10 to 15 nM
B4: FV-810^R1545Q (other, human, UniProt P12259 29-838, looked up)
chain: AQLRQFYVAAQGISWSYRPEPTNSSLNLSVTSFKKIVYREYEPYFKKEKPQSTISGLLGPTLYAEVGDIIKVHFKNKADKPLSIHPQGIRYSKLSEGASYLDHTFPAEKMDDAVAPGREYTYEWSISEDSGPTHDDPPCLTHIYYSHENLIEDFNSGLIGPLLICKKGTLTEGGTQKTFDKQIVLLFAVFDESKSWSQSSSLMYTVNGYVNGTMPDITVCAHDHISWHLLGMSSGPELFSIHFNGQVLEQNHHKVSAITLVSATSTTANMTVGPEGKWIISSLTPKHLQAGMQAYIDIKNCPKKTRNLKKITREQRRHMKRWEYFIAAEEVIWDYAPVIPANMDKKYRSQHLDNFSNQIGKHYKKVMYTQYEDESFTKHTVNPNMKEDGILGPIIRAQVRDTLKIVFKNMASRPYSIYPHGVTFSPYEDEVNSSFTSGRNNTMIRAVQPGETYTYKWNILEFDEPTENDAQCLTRPYYSDVDIMRDIASGLIGLLLICKSRSLDRRGIQRAADIEQQAVFAVFDENKSWYLEDNINKFCENPDEVKRDDPKFYESNIMSTINGYVPESITTLGFCFDDTVQWHFCSVGTQNEILTIHFTGHSFIYGKRHEDTLTLFPMRGESVTVTMDNVGTWMLTSMNSSPRSKKLRLKFRDVKCIPDDDEDSYEIFEPPESTVMATRKMHDRLEPEDEESDADYDYQNRLAAALGIRSFRNSSLNQEEEEFNLTALALENGTEFVSSNTDIIVGSNYSSPSNISKFTVNNLAEPQKAPSHQQATTAGSPLRHLIGKNSVLNSSTAEHSSPYSEDPIEDTDYIEIIPKEEVQSSEDDYAEIDYVPYDDPYKTDVRTNINSSRDPDNIAAWYLQSNNGNRRNYYIAAEEISWDYSEFVQRETDIEDSDDIPEDTTYKKVVFRKYLDSTFTKRDPRGEYEEHLGILGPIIRAEVDDVIQVRFKNLASRPYSLHAHGLSYEKSSEGKTYEDDSPEWFKEDNAVQPNSSYTYVWHATERSGPESPGSACRAWAYYSAVNPEKDIHSGLIGPLLICQKGILHKDSNMPMDMREFVLLFMTFDEKKSWYYEKKSRSSWRLTSSEMKKSHEFHAINGMIYSLPGLKMYEQEWVRLHLLNIGGSQDIHVVHFHGQTLLENGNKQHQLGVWPLLPGSFKTLEMKASKPGWWLLNTEVGENQRAGMQTPFLIMDRDCRMPMGLSTGIISDSQIKASEFLGYWEPRLARLNNGGSYNAWSVEKLAAEFASKPWIQVDMQKEVIITGIQTQGAKHYLKSCYTTEFYVAYSSNQINWQIFKGNSTRNVMYFNGNSDASTIKENQFDPPIVARYIRISPTRAYNRPTLRLELQGCEVNGCSTPLGMENGKIENKQITASSFKKSWWGDYWEPFRARLNAQGRVNAWQAKANNNKQWLEIDLLKIKKITAIITQGCKSLSSEMYVKSYTIHYSEQGVEWKPYRLKSSMVDKIFEGNTNTKGHVKNFFNPPIISRFIRVIPKTWNQSIALRLELFGCDIY
notes: as for B3
